Legend:
[1] = target: T1, EGFR (form in the assay not stated) (human, UniProt P00533 25-645, limits assumed); assay: ELISA, NEM conjugate 10 nM
[2] = target: T1, EGFR (form in the assay not stated); assay: ELISA, NEM conjugate 500 nM
[3] = target: T1, EGFR (form in the assay not stated); assay: ELISA, NEM conjugate 100 nM

B1: P54AR4-83v2 K5C, NEM conjugate (designed binder)
chain: LPAPCNLVVSEVTEDSARLSWDDPWAFYESFLIQYQESEKVGEAIVLTVPGSERSYDLTGLKPGTEYTVSIYGVHNVYKDTNMRGLPLSAIFTT
modifications: NEM on Cys 5
notes: His-tagged
Question: What does the source list for B1?
Answer: binding ratio vs parent P54AR4-83v2 [1]: 0.61 ratio; binding ratio vs parent P54AR4-83v2 [2]: 0.92 ratio; binding ratio vs parent P54AR4-83v2 [3]: 1.06 ratio

B2: P54AR4-83v2 K79C, NEM conjugate (designed binder)
chain: LPAPKNLVVSEVTEDSARLSWDDPWAFYESFLIQYQESEKVGEAIVLTVPGSERSYDLTGLKPGTEYTVSIYGVHNVYCDTNMRGLPLSAIFTT
modifications: NEM on Cys 79
notes: His-tagged
Question: How did the “binding ratio vs parent P54AR4-83v2” value [1] turn out when B2 was run?
Answer: 0.9 ratio

Question: And the “binding ratio vs parent P54AR4-83v2” value [2]?
Answer: 0.93 ratio

Question: What about the “binding ratio vs parent P54AR4-83v2” value [3] of the same binder?
Answer: 0.99 ratio

B3: P54AR4-83v2 K62C, NEM conjugate (designed binder)
chain: LPAPKNLVVSEVTEDSARLSWDDPWAFYESFLIQYQESEKVGEAIVLTVPGSERSYDLTGLCPGTEYTVSIYGVHNVYKDTNMRGLPLSAIFTT
modifications: NEM on Cys 62
notes: His-tagged
Question: Which results are given for B3?
Answer: binding ratio vs parent P54AR4-83v2 [1]: 0.64 ratio; binding ratio vs parent P54AR4-83v2 [2]: 0.61 ratio; binding ratio vs parent P54AR4-83v2 [3]: 0.73 ratio

B4: P54AR4-83v2 P50C, NEM conjugate (designed binder)
chain: LPAPKNLVVSEVTEDSARLSWDDPWAFYESFLIQYQESEKVGEAIVLTVCGSERSYDLTGLKPGTEYTVSIYGVHNVYKDTNMRGLPLSAIFTT
modifications: NEM on Cys 50
notes: His-tagged
Question: What does the source list for B4?
Answer: binding ratio vs parent P54AR4-83v2 [1]: 0.91 ratio; binding ratio vs parent P54AR4-83v2 [2]: 0.97 ratio; binding ratio vs parent P54AR4-83v2 [3]: 1.05 ratio

B5: P54AR4-83v2 S20C, NEM conjugate (designed binder)
chain: LPAPKNLVVSEVTEDSARLCWDDPWAFYESFLIQYQESEKVGEAIVLTVPGSERSYDLTGLKPGTEYTVSIYGVHNVYKDTNMRGLPLSAIFTT
modifications: NEM on Cys 20
notes: His-tagged
Question: How did the “binding ratio vs parent P54AR4-83v2” value [1] turn out when B5 was run?
Answer: 0.81 ratio

Question: And the “binding ratio vs parent P54AR4-83v2” value [2]?
Answer: 0.91 ratio

Question: What about the “binding ratio vs parent P54AR4-83v2” value [3] of the same binder?
Answer: 1.05 ratio

B6: P54AR4-83v2 N76C, NEM conjugate (designed binder)
chain: LPAPKNLVVSEVTEDSARLSWDDPWAFYESFLIQYQESEKVGEAIVLTVPGSERSYDLTGLKPGTEYTVSIYGVHCVYKDTNMRGLPLSAIFTT
modifications: NEM on Cys 76
notes: His-tagged
Question: Which results are given for B6?
Answer: binding ratio vs parent P54AR4-83v2 [1]: 0.75 ratio; binding ratio vs parent P54AR4-83v2 [2]: 0.91 ratio; binding ratio vs parent P54AR4-83v2 [3]: 0.97 ratio

B7: P54AR4-83v2 N6C, NEM conjugate (designed binder)
chain: LPAPKCLVVSEVTEDSARLSWDDPWAFYESFLIQYQESEKVGEAIVLTVPGSERSYDLTGLKPGTEYTVSIYGVHNVYKDTNMRGLPLSAIFTT
modifications: NEM on Cys 6
notes: His-tagged
Question: How did the “binding ratio vs parent P54AR4-83v2” value [1] turn out when B7 was run?
Answer: 0.76 ratio

Question: What about the “binding ratio vs parent P54AR4-83v2” value [2] of the same binder?
Answer: 0.89 ratio

Question: And the “binding ratio vs parent P54AR4-83v2” value [3]?
Answer: 1.01 ratio

B8: P54AR4-83v2 S16C, NEM conjugate (designed binder)
chain: LPAPKNLVVSEVTEDCARLSWDDPWAFYESFLIQYQESEKVGEAIVLTVPGSERSYDLTGLKPGTEYTVSIYGVHNVYKDTNMRGLPLSAIFTT
modifications: NEM on Cys 16
notes: His-tagged
Question: With B8 as the binder, how does the “binding ratio vs parent P54AR4-83v2” value [1] read?
Answer: 0.88 ratio

Question: What about the “binding ratio vs parent P54AR4-83v2” value [2] of the same binder?
Answer: 0.63 ratio

Question: What about the “binding ratio vs parent P54AR4-83v2” value [3] of the same binder?
Answer: 1.05 ratio

B9: P54AR4-83v2 L7C, NEM conjugate (designed binder)
chain: LPAPKNCVVSEVTEDSARLSWDDPWAFYESFLIQYQESEKVGEAIVLTVPGSERSYDLTGLKPGTEYTVSIYGVHNVYKDTNMRGLPLSAIFTT
modifications: NEM on Cys 7
notes: His-tagged
Question: How did the “binding ratio vs parent P54AR4-83v2” value [1] turn out when B9 was run?
Answer: 0.35 ratio

Question: What about the “binding ratio vs parent P54AR4-83v2” value [2] of the same binder?
Answer: 0.9 ratio

Question: What about the “binding ratio vs parent P54AR4-83v2” value [3] of the same binder?
Answer: 1 ratio

B10: P54AR4-83v2 P87C, NEM conjugate (designed binder)
chain: LPAPKNLVVSEVTEDSARLSWDDPWAFYESFLIQYQESEKVGEAIVLTVPGSERSYDLTGLKPGTEYTVSIYGVHNVYKDTNMRGLCLSAIFTT
modifications: NEM on Cys 87
notes: His-tagged
Question: How did the “binding ratio vs parent P54AR4-83v2” value [1] turn out when B10 was run?
Answer: 0.73 ratio

Question: What about the “binding ratio vs parent P54AR4-83v2” value [2] of the same binder?
Answer: 0.91 ratio

Question: What about the “binding ratio vs parent P54AR4-83v2” value [3] of the same binder?
Answer: 0.93 ratio

B11: P54AR4-83v2 L32C, NEM conjugate (designed binder)
chain: LPAPKNLVVSEVTEDSARLSWDDPWAFYESFCIQYQESEKVGEAIVLTVPGSERSYDLTGLKPGTEYTVSIYGVHNVYKDTNMRGLPLSAIFTT
modifications: NEM on Cys 32
notes: His-tagged
Question: Which results are given for B11?
Answer: binding ratio vs parent P54AR4-83v2 [1]: 0.87 ratio; binding ratio vs parent P54AR4-83v2 [2]: 0.91 ratio; binding ratio vs parent P54AR4-83v2 [3]: 1.01 ratio

B12: P54AR4-83v2 P4C, NEM conjugate (designed binder)
chain: LPACKNLVVSEVTEDSARLSWDDPWAFYESFLIQYQESEKVGEAIVLTVPGSERSYDLTGLKPGTEYTVSIYGVHNVYKDTNMRGLPLSAIFTT
modifications: NEM on Cys 4
notes: His-tagged
Question: With B12 as the binder, how does the “binding ratio vs parent P54AR4-83v2” value [1] read?
Answer: 0.02 ratio

Question: And the “binding ratio vs parent P54AR4-83v2” value [2]?
Answer: 0.12 ratio

Question: What about the “binding ratio vs parent P54AR4-83v2” value [3] of the same binder?
Answer: 0.02 ratio

B13: P54AR4-83v2 L47C, NEM conjugate (designed binder)
chain: LPAPKNLVVSEVTEDSARLSWDDPWAFYESFLIQYQESEKVGEAIVCTVPGSERSYDLTGLKPGTEYTVSIYGVHNVYKDTNMRGLPLSAIFTT
modifications: NEM on Cys 47
notes: His-tagged
Question: Which results are given for B13?
Answer: binding ratio vs parent P54AR4-83v2 [1]: 0.92 ratio; binding ratio vs parent P54AR4-83v2 [2]: 0.91 ratio; binding ratio vs parent P54AR4-83v2 [3]: 1.02 ratio

B14: P54AR4-83v2 P24C, NEM conjugate (designed binder)
chain: LPAPKNLVVSEVTEDSARLSWDDCWAFYESFLIQYQESEKVGEAIVLTVPGSERSYDLTGLKPGTEYTVSIYGVHNVYKDTNMRGLPLSAIFTT
modifications: NEM on Cys 24
notes: His-tagged
Question: How did the “binding ratio vs parent P54AR4-83v2” value [1] turn out when B14 was run?
Answer: 0.45 ratio

Question: What about the “binding ratio vs parent P54AR4-83v2” value [2] of the same binder?
Answer: 0.83 ratio

Question: What about the “binding ratio vs parent P54AR4-83v2” value [3] of the same binder?
Answer: 0.85 ratio

B15: P54AR4-83v2 Q34C, NEM conjugate (designed binder)
chain: LPAPKNLVVSEVTEDSARLSWDDPWAFYESFLICYQESEKVGEAIVLTVPGSERSYDLTGLKPGTEYTVSIYGVHNVYKDTNMRGLPLSAIFTT
modifications: NEM on Cys 34
notes: His-tagged
Question: Which results are given for B15?
Answer: binding ratio vs parent P54AR4-83v2 [1]: 0.89 ratio; binding ratio vs parent P54AR4-83v2 [2]: 0.94 ratio; binding ratio vs parent P54AR4-83v2 [3]: 1.03 ratio
